In patent US20220160939A1, “SELF-ASSEMBLING PEPTIDES AS BRONCHIAL OBSTRUCTION AGENTS” (3-D MATRIX, LTD., priority 2014, published 2022):
Where no end group is shown, it is not given here.

Columns and labels:
Format in all cases: physicochemical
[1] = pH and appearance of 2.5% peptide solutions after adding 0.1 N NaOH
Procedure: To adjust the pH level of the peptide solutions by way of example, 0.1 N NaOH was added to 2 mL of 2.5% peptide solutions and their pH and appearance were measured.

[2] = Rheological properties of pH adjusted peptide solutions; settings: for rheological properties of solutions at pH 3.4: pH adjusted vs not adjusted, KLD12 1%, IEIK13 1%, PuraMatrix 1% and 2.5%
Procedure: Based on the visual observation of the effect of pH level on the properties of the peptide solutions, the effect on the rheological properties of the peptide solutions after adjusting their pH level to 3.4 (PuraMatrix® (SEQ ID NO:1) and KLD12 (SEQ ID NO:3)) or 3.7 (IEIK13 (SEQ ID NO:2)) was evaluated. If the pH levels of peptide solutions are higher than 3.5 (PuraMatrix® (SEQ ID NO:1) and KLD12 (SEQ ID NO:3)) or 3.7 (IEIK13 (SEQ ID NO:2)), the peptide solution began phase separation becoming cloudy. The rheological properties of PuraMatrix® (SEQ ID NO:1), KLD12 (SEQ ID NO:3) and IEIK13 (SEQ ID NO:2) solutions were higher at pH 3.4. The results are shown in FIG. 2 for KLD12 (SEQ ID NO:3) 1%, FIG. 3 for IEIK13 (SEQ ID NO:2) 1%, and FIGS. 4-5 for PuraMatrix® (SEQ ID NO:1) 1% and 2.5%, respectively. Stress sweep tests were performed at 10 rad/s. Frequency sweep tests were performed at 1 Pa.
Based on the results of the effect on the rheological properties of the peptide solutions after adjusting their pH level to 3.4 (PuraMatrix® (SEQ ID NO:1) and KLD12 (SEQ ID NO:3)) or 3.7 (IEIK13 (SEQ ID NO:2)), the effect on the rheological properties of the peptide solutions at various pH levels was evaluated. […] The rheological properties of peptides were evaluated at various concentrations using a rheometer (DHR-1, TA Instruments) with 20 mm plates. The results are shown in FIG. 6A for PuraMatrix® (SEQ ID NO:1) 2.5% solution and FIG. 6B for IEIK13 (SEQ ID NO:2) 1.5% solution, respectively. Frequency sweep tests were performed from 1 rad/sec to 10 rad/sec at 1 Pa and the storage modulus at 1 rad/sec was selected for data.

[3] = Gelation of peptide solutions after saline buffer treatment, time sweep test; settings: saline buffer (0.15 M of NaCl), no pH change; IEIK13 1.5%, KLD12 1.5%, PuraMatrix 2.5%
Procedure: The effect of salt ionic strength level surrounding peptides in solution on the properties of peptide solutions was evaluated to identify the possibility of peptide gelation when the peptide solution is placed into the environment where salt ionic strength level is high. […] Without pH effect, the effect of saline treatment on gelation of peptide solutions were evaluated. […] This is because IEIK13 (SEQ ID NO:2) is much more sensitive to salt ionic strength levels. Fast gelation of IEIK13 (SEQ ID NO:2) at the salt ionic strength level similar to body fluid isotonic salt level may generally improve its function and gelation speed for various clinical applications. The results are shown in FIG. 19 for IEIK13 (SEQ ID NO:2), KLD12 (SEQ ID NO:3) and PuraMatrix® (SEQ ID NO:1) solutions. Time sweep tests were performed at 1 rad/sec and at 1 Pa with 20 mm plates and 500 μm gap distance. […]

[4] = Salt ionic strength plus pH adjustment: appearance and rheological properties; settings: for appearance of peptide solutions: 0.9% NaCl (ionic strength: 0.15 M) at pH 3.4 adjusted with NaOH
Description: In accordance with one or more embodiments, IEIK13 (SEQ ID NO:2), KLD12 (SEQ ID NO:3), and PuraMatrix® (SEQ ID NO:1) may be dissolved both in salt buffer such as NaCl and at an elevated pH level adjusted with alkali salt buffer such as NaOH to keep their salt ionic strength under their critical salt points as well as their pH level to about 2.5˜4.0, so that they may have stiffer properties. With respect to PuraMatrix® (SEQ ID NO:1), […] and IEIK13 (SEQ ID NO:2), the peptide solutions are still clear with 0.9% NaCl (ionic strength: 0.15 M) at pH 3.4 adjusted with NaOH. The rheological property of PuraMatrix® (SEQ ID NO:1) with 0.9% NaCl (ionic strength: 0.15 M) at pH 3.4 was stiffer than those of PuraMatrix® (SEQ ID NO:1) control and PuraMatrix® (SEQ ID NO:1) with only NaCl 0.9%. The effect of salt ionic strength and pH adjustment on the rheological properties of PuraMatrix® (SEQ ID NO:1) 2.5% solution are shown in FIG. 20. Frequency sweep tests were performed from 1 rad/sec to 10 rad/sec at 1 Pa and the storage modulus at 1 rad/sec was selected for data.

[5] = 0.1N NaOH 150 μL/mL added in 2.5% solution, conc. 2.17%
[6] = 0.1N NaOH 200 μL/mL added in 2.5% solution, conc. 2.08%
[7] = 0.1N NaOH 250 μL/mL added in 2.5% solution, conc. 2.0%
[8] = 0.1N NaOH 275 μL/mL added in 2.5% solution, conc. 1.96%
[9] = 0.1N NaOH 300 μL/mL added in 2.5% solution, conc. 1.92%
[10] = 0.1N NaOH 350 μL/mL added in 2.5% solution, conc. 1.85%
[11] = NaOH volume and conc. not given
[12] = peptide solution pH 7.0, NaOH volume and conc. not given

Substance	Appearance [1, 5]	Appearance [1, 6]	Appearance [1, 7]	Appearance [1, 8]	Appearance [1, 9]	Appearance [1, 10]	Peptide solution pH [1, 11]	Appearance [1, 12]	rheological properties of solutions at pH 3.4 [2]	gelation after saline buffer treatment [3]	appearance of peptide solutions [4]	rheological property versus control and versus only NaCl 0.9% ([4]; 2.5% solution, 0.9% NaCl (ionic strength: 0.15 M) at pH 3.4)	Appearance ([1]; 0.1N NaOH 400 μL/mL added in 2.5% solution, conc. 1.79%)	pH level above which the peptide solution began phase separation becoming cloudy [2]	Appearance ([1]; 0.1N NaOH 225 μL/mL added in 2.5% solution, conc. 2.04%)
Arg-Ala-Asp-Ala-Arg-Ala-Asp-Ala-Arg-Ala-Asp-Ala-Arg-Ala-Asp-Ala [PuraMatrix ®]	Clear, thick, stiffer gel	Clear, thick, stiffer gel	Clear, thick, stiffer gel	Clear, thick, stiffer gel	Slightly cloudy, brittle gel	Cloudy, phase-separated	7.0	Cloudy, phase-separated	higher	no or negligible gelation	still clear	stiffer	–	–	–
Ile-Glu-Ile-Lys-Ile-Glu-Ile-Lys-Ile-Glu-Ile-Lys-Ile [IEIK13]	Clear, thick gel, stiffer gel	Clear, thick gel, stiffer gel	Clear, thick gel, stiffer gel	Clear, thick, stiffer gel	Slightly cloudy, brittle gel	–	7.0	Cloudy, phase-separated	higher	fast gelation	still clear	–	Cloudy, phase-separated	> 3.7	–
KLDLKLDLKLDL [KLD12]	Clear, thick and stiffer gel	Clear, thick and stiffer gel	Slightly cloudy, brittle gel	–	–	Cloudy, phase-separated	7.0	Cloudy, phase-separated	higher	no or negligible gelation	still clear	–	–	–	Clear, thick and stiffer gel
